Laboratory results from the supplement of paper PMC10201428.
± gives the standard deviation of the averaged measurements.

Columns and labels:
[1] = system: VchCAST RNA-guided transposition machinery (E. coli BL21(DE3) host, lacZ target); assay: relative integration efficiency (T-LR orientation) vs wild-type transposon end (log2 (normalized fold change)); transposon end mutated: right end (5 bp flank + 75 bp right end); higher = more efficient transposition
Method in brief: (§1)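 A T7-driven effector plasmid encoding a CRISPR array, tniQ-cas8-cas7-cas6 and tnsA-tnsB-tnsC was co-transformed into E. coli BL21(DE3) together with a pUC57 mini-transposon donor holding barcoded pools of 1549 left-end or 1849 right-end variants. Transformants were plated with 0.1 mM IPTG at 37°C for 18 h. Illumina sequencing of PCR-amplified input plasmids and genomic integration junctions gave barcode abundances, and relative integration efficiency is their output/input fold change, normalised to reference barcodes and log-transformed.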

[2] = system: VchCAST RNA-guided transposition machinery (E. coli BL21(DE3) host, lacZ target); assay: relative integration efficiency (T-RL orientation) vs wild-type transposon end (log2 (normalized fold change)); transposon end mutated: right end (5 bp flank + 75 bp right end); higher = more efficient transposition
Method in brief: as §1

Row | Sequence | relative integration efficiency (log2) [1] | relative integration efficiency (log2) [2]
1 | ACATTTGTTGATACAACCATAAAATGATAATTACAACCATATATTGATATCTCTCACAACCATAAAGTGATATTTACTCTGATCATAGTCAGACCAACATTGCTACGACCCGTATTCGCACCGACAC | 0.0743 ± 0.02 | -0.5 ± 0.27
2 | ACATTTGTTGATACAACCATAAAATGATAATTACAACCATATATTGATATCTCTCACAACCATAAGTTGATATTTTCTCTGATCATAGTCAGACCAACATTGCTACGACCCGTATTCGCACCGACAC | -0.141 ± 0.5 | -0.374 ± 0.19
3 | ACATTTGTTGATACAACCATAAAATGATAATTACAACCATATATTGATATCTCTCACAACCATATATTGATATCTCCTCTGATCATAGTCAGACCAACATTGCTACGACCCGTATTCGCACCGACAC | 0.0166 ± 0.61 | -0.574 ± 0.17
4 | ACATTTGTTGATACAACCATAAAATGATAATTACAACCATATATTGATATCTCTCACACCCATAAATTGATAATTACTCTGATCATAGTCAGACCAACATTGCTACGACCCGTATTCGCACCGACAC | -0.0249 ± 0.15 | -0.651 ± 0.2
5 | ACATTTGTTGATACAACCATAAAATGATAATTACAACCATATATTGATATCTCTCACACCCATAAATTGATATTGCCTCTGATCATAGTCAGACCAACATTGCTACGACCCGTATTCGCACCGACAC | 0.0992 ± 0.38 | -0.424 ± 0.15
6 | ACATTTGTTGATACAACCATAAAATGATAATTACAACCATATATTGATATCTCTCAGTGGGTATTTAACTATAACGCTCTGATCATAGTCAGACCAACATTGCTACGACCCGTATTCGCACCGACAC | 3.01 ± 0.18 | -0.933 ± 0.28
7 | ACATTTGTTGATACAACCATAAAATGATAATTACACAAATAAATTGATAATTATCACACCCATAAATTGATATTGCCTCTGATCATAGTCAGACCAACATTGCTACGACCCGTATTCGCACCGACAC | -1.82 ± 0.23 | -0.996 ± 0.19
8 | ACATTTGTTGATACAACCATAAAATGATAATTACACAACGAAATTGATAATTATCACACCCATAAATTGATATTGCCTCTGATCATAGTCAGACCAACATTGCTACGACCCGTATTCGCACCGACAC | -3.53 ± 0.42 | -3.5 ± 0.2
9 | ACATTTGTTGATACAACCATAAAATGATAATTACACAACGCCCGGTCGCCGGCGACACAAACGCCCGGTCGCGGTAAGAGGATCATAGTCAGACCAACATTGCTACGACCCGTATTCGCACCGACAC | 0.604 ± 0.2 | -2.42 ± 0.23
10 | ACATTTGTTGATACAACCATAAAATGATAATTACACCACGCAATTGATAATTATCACACCCATAAATTGATATTGCCTCTGATCATAGTCAGACCAACATTGCTACGACCCGTATTCGCACCGACAC | -2.53 ± 0.18 | -3.04 ± 0.044
11 | ACATTTGTTGATACAACCATAAAATGATAATTACACCACGCCCGGTCGCCGGCGACACAAACGCCCGGTCGCGGTAAGAGGATCATAGTCAGACCAACATTGCTACGACCCGTATTCGCACCGACAC | 0.799 ± 0.081 | -2.31 ± 0.082
12 | ACATTTGTTGATACAACCATAAAATGATAATTACACCACTAAATTGATAATTATCACACCCATAAATTGATATTGCCTCTGATCATAGTCAGACCAACATTGCTACGACCCGTATTCGCACCGACAC | -2.09 ± 0.036 | -1.78 ± 0.12
13 | ACATTTGTTGATACAACCATAAAATGATAATTACACCCAATAATTGATAATTATCACACCCATAAATTGATATTGCCTCTGATCATAGTCAGACCAACATTGCTACGACCCGTATTCGCACCGACAC | -0.381 ± 0.18 | -0.277 ± 0.02
14 | ACATTTGTTGATACAACCATAAAATGATAATTACACCCAATTTTTGATAATTATCACACCCATAAATTGATATTGCCTCTGATCATAGTCAGACCAACATTGCTACGACCCGTATTCGCACCGACAC | -0.688 ± 0.35 | -0.529 ± 0.16
15 | ACATTTGTTGATACAACCATAAAATGATAATTACACCCAGCAATTGATAATTATCACACCCATAAATTGATATTGCCTCTGATCATAGTCAGACCAACATTGCTACGACCCGTATTCGCACCGACAC | -2.55 ± 0.22 | -2.18 ± 0.085
16 | ACATTTGTTGATACAACCATAAAATGATAATTACACCCAGCCCGGTCGCCGGCGACACAAACGCCCGGTCGCGGTAAGAGGATCATAGTCAGACCAACATTGCTACGACCCGTATTCGCACCGACAC | 1.03 ± 0.08 | -1.97 ± 0.16
17 | ACATTTGTTGATACAACCATAAAATGATAATTACACCCAGCCCTTGATAATTATCACACCCATAAATTGATATTGCCTCTGATCATAGTCAGACCAACATTGCTACGACCCGTATTCGCACCGACAC | -2.1 ± 0.29 | -1.99 ± 0.04
18 | ACATTTGTTGATACAACCATAAAATGATAATTACACCCATAAAAACTTAATTATCACACCCATAAATTGATATTGCCTCTGATCATAGTCAGACCAACATTGCTACGACCCGTATTCGCACCGACAC | -0.52 ± 0.069 | -0.679 ± 0.12

Row | Sequence | relative integration efficiency (log2) [1] | relative integration efficiency (log2) [2]
19 | ACATTTGTTGATACAACCATAAAATGATAATTACACCCATAAAAAGATAATTATCACACCCATAAATTGATATTGCCTCTGATCATAGTCAGACCAACATTGCTACGACCCGTATTCGCACCGACAC | -1.08 ± 0.96 | -0.162 ± 0.011
20 | ACATTTGTTGATACAACCATAAAATGATAATTACACCCATAAAGGGATAATTATCACACCCATAAATTGATATTGCCTCTGATCATAGTCAGACCAACATTGCTACGACCCGTATTCGCACCGACAC | -0.969 ± 0.58 | -0.447 ± 0.064
21 | ACATTTGTTGATACAACCATAAAATGATAATTACACCCATAAAGGTCGCCGGCGACACAAACGCCCGGTCGCGGTAAGAGGATCATAGTCAGACCAACATTGCTACGACCCGTATTCGCACCGACAC | 0.613 ± 0.011 | -2.2 ± 0.37
22 | ACATTTGTTGATACAACCATAAAATGATAATTACACCCATAAAGGTCTAATTATCACACCCATAAATTGATATTGCCTCTGATCATAGTCAGACCAACATTGCTACGACCCGTATTCGCACCGACAC | -1.72 ± 0.31 | -1.77 ± 0.13
23 | ACATTTGTTGATACAACCATAAAATGATAATTACACCCATAAATACATAATTATCACACCCATAAATTGATATTGCCTCTGATCATAGTCAGACCAACATTGCTACGACCCGTATTCGCACCGACAC | -0.737 ± 0.026 | -0.763 ± 0.18
24 | ACATTTGTTGATACAACCATAAAATGATAATTACACCCATAAATACTAAATTATCACACCCATAAATTGATATTGCCTCTGATCATAGTCAGACCAACATTGCTACGACCCGTATTCGCACCGACAC | -1.26 ± 0.24 | -1.56 ± 0.23
25 | ACATTTGTTGATACAACCATAAAATGATAATTACACCCATAAATCTGAAATTATCACACCCATAAATTGATATTGCCTCTGATCATAGTCAGACCAACATTGCTACGACCCGTATTCGCACCGACAC | -1.08 ± 0.29 | -0.888 ± 0.057
26 | ACATTTGTTGATACAACCATAAAATGATAATTACACCCATAAATGGATAATTATCACCCCCAATTTAACTATAACGCTCTGATCATAGTCAGACCAACATTGCTACGACCCGTATTCGCACCGACAC | 1.64 ± 0.048 | -1.3 ± 0.18
27 | ACATTTGTTGATACAACCATAAAATGATAATTACACCCATAAATGGATCATTATCACACCCAATTTAACTATAACGCTCTGATCATAGTCAGACCAACATTGCTACGACCCGTATTCGCACCGACAC | 1.07 ± 0.2 | -1.63 ± 0.33
28 | ACATTTGTTGATACAACCATAAAATGATAATTACACCCATAAATGGATCATTATCACCCCCAATTTAACTATAACGCTCTGATCATAGTCAGACCAACATTGCTACGACCCGTATTCGCACCGACAC | 1.15 ± 0.28 | -1.44 ± 0.18
29 | ACATTTGTTGATACAACCATAAAATGATAATTACACCCATAAATGGATTATTATCACACCCAATTTAACTATAACGCTCTGATCATAGTCAGACCAACATTGCTACGACCCGTATTCGCACCGACAC | 0.865 ± 0.44 | -1.59 ± 0.23
30 | ACATTTGTTGATACAACCATAAAATGATAATTACACCCATAAATGTATAATTATCACACCCATAAATTGATATTGCCTCTGATCATAGTCAGACCAACATTGCTACGACCCGTATTCGCACCGACAC | -1.04 ± 0.38 | -0.553 ± 0.026
31 | ACATTTGTTGATACAACCATAAAATGATAATTACACCCATAAATGTCGAATTATCACACCCATAAATTGATATTGCCTCTGATCATAGTCAGACCAACATTGCTACGACCCGTATTCGCACCGACAC | -2.54 ± 0.58 | -1.83 ± 0.081
32 | ACATTTGTTGATACAACCATAAAATGATAATTACACCCATAAATGTCGCCGGCGACACAAACGCCCGGTCGCGGTAAGAGGATCATAGTCAGACCAACATTGCTACGACCCGTATTCGCACCGACAC | 1 ± 0.17 | -1.73 ± 0.3
33 | ACATTTGTTGATACAACCATAAAATGATAATTACACCCATAAATTCATAATTATCACCCCCAATTTAACTATAACGCTCTGATCATAGTCAGACCAACATTGCTACGACCCGTATTCGCACCGACAC | 1.06 ± 0.079 | -1.95 ± 0.33
34 | ACATTTGTTGATACAACCATAAAATGATAATTACACCCATAAATTCATCATTATCACACCCAATTTAACTATAACGCTCTGATCATAGTCAGACCAACATTGCTACGACCCGTATTCGCACCGACAC | 1.42 ± 0.023 | -2.36 ± 0.48
35 | ACATTTGTTGATACAACCATAAAATGATAATTACACCCATAAATTCATCATTATCACCCCCAATTTAACTATAACGCTCTGATCATAGTCAGACCAACATTGCTACGACCCGTATTCGCACCGACAC | 1.45 ± 0.16 | -1.8 ± 0.25
